These results are taken from a protein production outcome set (Wang et al. 2014).

This data set can be described thus: label from the status in PepcDB records.
As to “MELSINILNIIGILLEIGVSIYIIISEKKKSKNRNSEAENDLIQQTNNIINNTQGDNASFNYTNVLMQSKYQERAYREILNDLGDKKENKQKSKYGKKCSYLRKVINIVCLGIGGFWAFYYFDLMKITSFNTYLLNVLFQTIYTLATFILIFSLSNFVKLFLIHFKEYNYIVLRKIQLFLTTLFALLGATIWLYFDWRANFRPLFNMYTESSYYTLGIIMLGLVFYVFHQMAQSFLLNNIWVPKKAVKILFVSLIFSLIASICLFI”, the protein production result is listed as “failed”.
Then “MELTILILLLPFLSFLILGIGGKWMSHRTAGAIGTLILGAVVVLSYVTAFQYFSAPRLEDGTFATLIPYNFTWLPFTETLRFDLGILLDPISVMMLIVISTVSLMVHIYSFGYMKGETGFQRYYAFLSLFTMSMLGLVVATNIFQMYLFWELVGVSSYLLIGFYYTKPAAIAASKKAFIVTRFADLGFLIGILIYGYYGGTFGFTPDTVSLISGGASMLPLALGLMFIGGAGKSAMFPLHIWLPDAMEGPTPVSALIHAATMVVAGVYLVARMFPLFIAYAPDTLHMIAWVGAFTAFYAASVACVQSDIKRVLAFSTISQIGFMMVALGVCTSMDPHHGGLGYMASMFHLFTHAMFKALLFLGAGSIIHAVHSNEMSAMGGLRKYMPITHWTFLIACLAIAGIPPFSGFFSKDEILAACFQYSPAMGWVMTVIAAMTAFYMFRLYYGIFWGAEPPRASSHSDHSTPHGNLEAAPCRPHESPLAMTFPLIFLAVVTCLAGFIPFGHFISSNGESYSIHLDLSVAVTSVVIAIISIGIATWMYKNAKQPVANALAKRFNGLWTAAYHRFYIDDIYQFITHKIIFRCISTPIAWFDRHVVDGFFNFLAWATNTTSDEIRGLQSGQVQQYAYVFLCGALALILLLVL”, with “failed”.
Take “MEMDTMFLAILIGAGLIGISVVTSLISFRVGAPLLLVFLGVGLLAGQDGIGGIVFNDSGTAYFIGSLALAVILFDSGFSTRLQTFRLAAAPSIVLATLGVALTTALVAIPSHSLLGLSWEESALMGAVVGSTDAAAVFFLLRVGGILIRDRVRATLEVESSTNDPMAIFLTITLVELASAGGFSGEALSWGLGLAFVRQMGLGLLCGWIGGHLLVVGINRLRLEPALYPILGLALALFLFAAVSMVDGSGFLAIYVAGMVMGNRKMRGGPALRRFQEALTWLAQMTMFLTLGLFASPSTFIDVALPSVLIGLFLVFVARPVAVWLCLLPFGYDRNETAFVAWVGLRGAVSILLAILPIAAGLEHAQEMFNAAFIVVVTSLLLQGWTIRPMARWLGLVVPPRLGPVDKVELQLPYGGDHELLVYRIAKGSPVAEGERIPRWARPSLVVRDGRSMKVLDSGRPQPGDHVYIFSAPRHGALLDRLFARPTALSPADEAYFGDFSLDASRTMGELATLYGIKVPEGAQDTAVGEWLTQRLGGAPARGDRVVLPPIEIIVREMDNSTDVIRTIGLSLDPGEGRPRRVPMFHNARDIIGSVRDWRAARRRFAAKNS”: the protein production result is reported as “failed”.
Turning to “MEMEMINIRVLRFEPGVDEKPHLESYEIPSKEKMKVLDALQLINKIHGANIAFRSSCRAGQCGSCAVKMNGEVVLACRAEVEDGAIIEPIDLPVIKDLMVDRGEIEEKVKSMQLYLQASSEGIQRIRPEDYLDSKKLRGCIECFSCISSCPVIKESSEYAGPYFMRYLSKFAFDPRDTGDRAQEGVDKGLYCCTTCGKCAEVCPKELNVPGDAIEKLRAMACREGSGPLDAHRRIKKLISETGRSVDRIKDGFIESVGKNPGSRIGFFTGCLVDYRMPEVGMALLRVLREHGFDVDVPEGQVCCGSPMIRTGQVDIVEDLVEKNRKALRDYDTIITVCAGCGATLKKDYPRYGVKLNVLDISEFLADRIDTIKMKPVNMRVTYHDPCHLKRGQGVEFEPRKILRKIPGLEFVEMEKPDQCCGSGGGVKSGKPEVAEALGRKKADMIRELDVDAVVTICPFCQLHIRDSLDLAGLENVRVMNILELLDLAYSD”, the protein production result is reported as “failed”.
The same measure for “MEMKKSGRSLKMIFTQYFATVSLAFIALLCLIWAIFVISLNTKLIIPANQTEQELHRLEDKIEKADTFQAKRLPKDTAYLLMTKDGKIKESNMSKNLQQQALASYSGNAVSPNDYGYFMVFKRQKEVCIVNYRLEAHYSVAWMNKYLPNVSLLGLILTGLGVLLVFTLVTILFARRLQRQLSPIIAATQKIAKQNLDFTVQSSDIKEFNQVLNSLDTMRAALRDSLMHSWQVEQEKQNQIAALTHDIKTPLTVIKGNTELLKQTELSETQEAFVGYSLKNIGQVETYLQQLSYLAKNSQLQDFHPEKIKVAAFLEELSQNSQALAATKDIKIQFVNNLSDAQLTTYWDKGLLARALMNIISNAVEHSPQGSQLQLVCHLENELFQLTCLDSGQGFSREALDKAKMQFFQDDTSRHDRKHSGLGLTIADNIIRLHGGSLSLSNDAKTASGRVDVVLPLAKM”: “failed”; for “MEMMLGKTYREMVFWMAWIIIPFLMEIVPALGGFIILLRKRLSIKDKAFSGKLPQITIIVPVYNSEDTLKGCIESIYNSDYPSEFIDVMLVDNQSSDNSFKIFTRCQKEFDGLSLRYMNSKQGKSKALNMALFNSSGKYIIHIDSDGKLHKDAIKNMVTRFEGNPHVHCMTGVILTDKELIEKTKGSFFKLLRKCEFFEYAQAFLAGRNFESEVGSIYTLSGAFSAFRKSTILKTQLYNSETVSEDTQITFQVKKLLNQKVYLCENALFFVDPIEGFNKLYTQRQRWQRGELEVSHMFLRDGLKFGKGFVSDFMVRTLMYDHTFAFPRMIWYFALIFLVFMNYPIYLVVGSVAVIYLLYSLSAFLFYLNVISYLKKYKEVRSYYAKKFYLIFLMPMYNFGVFWIRFCGIINSIQLQGNWKTLNLTDEWRNFLGVFKRDFSVVFKVLNKLRQVVNNE”: “failed”.
The same measure for “MEMNVKTNSSPTAPKPSKQTGWRIWWSLLRPHTLTAAFVPVFIGTAYSMQVGGINQIHLPLFLMMLLACLLIQAATNMFNEYFDYKRGLDHEGSVGIGGAIVRDGIQPKTVLNLAFGFFGIAILLGVYICINSSWWLAAIGLVCMAVAYLYTGGPLPIAYTPFGELTAGLFMGVIIIGISFFIQTGTVTSEVILLSIPSSILIGAILLANNIRDLDGDKENGRKTLAILVGRERAVGVLASMFIVSYIWTIALIIVGIVSPWMLIVFLSAPKAFKATKGFIGKSIPMEMVPAMIATAKTNTIFGFLMGIGLLLGYFL”: “failed”; for “MEMTKVTGKFDVKLTPENAYATGVGGVNLGRMALDKTFYGELEARSQGEMLSAMTAVKGSAGYVAIEQVVGKLCGRQGSFVLQHFGIMTDGQNRLHLEVVPHSGAGELTGLYGTMAISIENGQHFYEFSFCFEPASEVEG”: “not failed”.
Then “MENAPLLFQLPDDDTLYQALLARDPAYEGFAFVGVKSTGVFCRLTCAARKPKRENTVFFGSIKGCVEAGFRACLRCRPLERAGVQEPWVQTLLEQLGRDPERRWYEDDLVAQGLDPSTVRRAFKRYFGVTFLEMARLRRMGQGMQQLASGEPVIEAQISAGFDSDSGFRHAFSRLAGQPPSNLRGRELLKVDWLQTPIGVMLAVADAQVLHLLEFFDRPALANELQNLQKSSGSSIGFGRFAPIDQIEAELQRYFAGEAVHFATPLAMSASPFTRTVWQALRAIPLGTTCSYAEVARQVGSPSAVRAVARANAANQISIVIACHRVIGADGSLTGYGGGLWRKRWLLEHERRLHHLQGASASGL”, with “failed”; and “MENDKHNNPKTIFIPDDIAEGIFHHLPIKSLARFKVLSKKWTSMIESTYFSHKRLIRTGLPTPNMKFLHISQHFTANFVEEYSNSITFLLETFSRDDQNNRKTFDESQNKTIQVLGSCDGLVLLRIHDDFRSIYLINPTTKEHMKLSPEFMQWPFTLSYLTPAMANKPWRQLSQSVLDYDISVKRMPSLAGFGKDIVKKSYKVVLIYTRYEIHDHEFKAKVLSLDNGEQRDVGFYDIHHCIFCDEQTSVYANGSLFWLTLKKLSQTSYQLLAIDLHTEEFRWILLPECDTKYATNIEMWNLNERLCLSDVLESSNLVVWSLHQEYPTEKWEKIYSIKIDVIRTNQLHEKFWMLGLAAAYFSNIRNRQDQVSFFRQRTISYLPTMISPSNLML”, with “failed”.
In the case of “MENEKLPYISVIIIAYNRKEFLLDAIKSALNQTLDREYYEIIVIKNFQDDTIDNFIKENNIKGIISENKSLGGKISEALYVSKGEIVSFLEDDDLFFPNKLREVYDIFISNPNLVYYHNNFIKTNNRLFEIDYSENKKNKKIFLKLIELNNIKTINYLISKKLIAFNMSAITIRKSYFNDCLDILENIRIAHDMCFFFCLSGKSDTSKEILIYDKPLSIWFIHNSWSNTSCDLEIKNFKNKNFTIAKETLNAIVYIFNEFCIKNNLYNFYDNKQPLCDYLKLTISARKSQLYLLNEYEININDIKLFFKFVTMRKSIYLSGAFILVLFGKFISKKLSTKIFLYISFLLNTI”, the protein production result is recorded as “failed”.
Then “MENETGGKDREVVEAVTNSEPGNGDGFAKKGDSYDDKLPSENVDKHMENEANEKEKEEDGAADELCALQDALETTLFQHLSNYAQKQMLQKLRSLRAKERKELSGEWKSLLAQEALLKSKKYSFSAELANATFHTWEEETRRMVL”, with “not failed”; and “MENIPFLRASTVPVIEYLDELKEIDASHIYTNYGPINQRFEQTIMSGFFQNRGAVTTVANATLGLMAAIQLKKRKKGKYALMPSFTFPATPLAAIWCGLEPYFIDISIDDWYMDKTVLWDKIEELKEEVAIVVPYATFGSWMNLEEYEELEKKGVPVVVDAAPGFGLMNGGMHYGQDFSGMIIYSFHATKPFGIGEGGLIYSKNEEDIQRIKRMGNFGFDTNRECTMMGFNCKMSEYAAAIGIATMKKWDDKLKERTRISEWYKQLLQSNGLMKKGWQLQKTEAVIQQFMPILCPEEVRNKQVIEDLKKQKIEARLYFSPSCHQQVLFRNYKSTDLTRTNKIAKRIVSLPLWEGMTKEIVEQIVICLGQKVVSADE”, with “not failed”; and “MENIQDSVSEYTKDSAQKIDTDALYHEQMLKALYAGFGIRFCAFIIDLLIIFGVHSLILKPIYHFTNLDSAKLWIDYFSVGHLLDALVFYLYFVLMTKYFKQTLGKMICNIRVERMDRQQLTWTDVLFREWIGRIISGVFANLPYLVTIFTKKHRGIHDYFADTVVIKNKFEKFFYLK”, with “failed”.
Regarding “MENKEISYEIIDFSGETNVQFRTSVDPGSYIPTHWHRAIEIIYMQEGSLDVIVESESFTIYKGDCILVNGNVLHSTKCTAPNTAILLQIPLNFMEKYIPNLGQLIFLWDYRTEDPVKKTKLMMLKTTLEQLQVINDIQPDGYLLRFNSLIFELMFQLYHNFSVQVFPQDINHKKKEMDRLDP”, the protein production result was “not failed”.
Then “MENKYLVSIIVPVHNTADYLHKCIESLRSQTLQQIEIILVDNLSVDGSSEICDEYAKIDKRIKVLHLSIAGLSIARNAGMRIASAPYIGFVDSDDYVEPAMFEKMLDAMVQSDAEIAYCNFLLEYEFKPNESPYRNSGDIVIRDPKNVLQDMMMEKVSCSACTKLYKSGFLTSLQFPEGKNYEDRLVMYEWVALCKKVVWVDSPFYHYVERQTSICHTMSPMNLYHYFLAEYARMRFMEKYSLFEEEDLFKIRTRLIGTCLTIFKEILLKVNLREFKEPVKDMRQKMKEIAALPEDTYELKYRRRVRKIAYHWHLYYLTHFLFKKGGDSLEHHHHHH”, with “failed”; and “MENMENDENIVVGPKPFYPIEEGSAGTQLRKYMERYAKLGAIAFTNAVTGVDYSYAEYLEKSCCLGKALQNYGLVVDGRIALCSENCEEFFIPVIAGLFIGVGVAPTNEIYTLRELVHSLGISKPTIVFSSKKGLDKVITVQKTVTTIKTIVILDSKVDYRGYQCLDTFIKRNTPPGFQASSFKTVEVDRKEQVALIMNSSGSTGLPKGVQLTHENTVTRFSHARDPIYGNQVSPGTAVLTVVPFHHGFGMFTTLGYLICGFRVVMLTKFDEETFLKTLQDYKCTSVILVPTLFAILNKSELLNKYDLSNLVEIASGGAPLSKEVGEAVARRFNLPGVRQGYGLTETTSAIIITPEGDDKPGASGKVVPLFKAKVIDLDTKKSLGPNRRGEVCVKGPMLMKGYVNNPEATKELIDEEGWLHTGDIGYYDEEKHFFIVDRLKSLIKYKGYQVPPAELESVLLQHPSIFDAGVAGVPDPVAGELPGAVVVLESGKNMTEKEVMDYVASQVSNAKRLRGGVRFVDEVPKGLTGKIDGRAIREILKKPVAKM”, with “not failed”.
